From paper PMC8863895, “A synthetic protein as efficient multitarget regulator against complement over-activation” (Communications Biology, 2022) come the findings set out here.

Holding throughout (conditions): both partners purified
For one test, the target named is T1, complement C5.
T1 construct: complement C5 beta chain; complement C5 alpha chain; source: bought: CompTech
The experiment in a line: ELISA; 5 µg/mL C3b or C5 immobilised on Maxisorp plates at 4 °C overnight; increasing concentrations of regulator (0.195-50 nM) in sample buffer (2% BSA in TBS, 0.05% Tween-20); detected with anti-His-tag antibodies; absorbance normalised to the highest concentration; IC50 from a 4PL nonlinear regression.

A further test concerns the target T2, complement C3b (UniProt P01024 749-1663; P01024 749-1663).
T2 construct: C3b beta-chain, cut product of complement C3; C3b alpha'-chain, cut product of complement C3 (alpha chain without C3a); source: bought: CompTech
The description is as above.

The next test has as its target T3, C3b (human).
T3 construct: complement C3, C3b β-chain; complement C3, C3b α′-chain (C3 α-chain after release of C3a); also called complement C3b; source: bought: CompTech
The experiment in a line: ELISA; decay acceleration assay: 250 ng C3b immobilised on Maxisorp; C3bBb formed with 400 ng Factor B and 25 ng Factor D, 2 h 37 °C; increasing concentrations of regulator, 40 min 37 °C; Bb remaining bound to C3b detected with anti-factor B polyclonal antibody.

Another test deals with T4, C9 (human, UniProt P02748 22-559).
T4 construct: complement component C9; Supplier is stated for the ELISA; also called complement component C9; source: bought: CompTech
The experiment in a line: ELISA; C5b6, C6, C7, C8, C9, C3b or C5 (5 µg/mL) immobilised on Maxisorp plates; single concentration of regulator (25 nM MFHR13 or MFHR1 variants, 50 nM FHR1); detected with anti-His-tag antibodies. For orientation: ELISA stands for enzyme-linked immunosorbent assay.

The target of a further test is T5, C8 (human, UniProt P07357 31-584; P07358 55-591; P07360 21-202).
T5 construct: also called complement component C8; source: bought: CompTech; copies: + +
The test is described as above.

In a further test the target is T6, C6 (human, UniProt P13671 22-934).
T6 construct: complement component C6; also called complement component C6; source: bought: CompTech
The test is described as above.

The next test concerns the target T7, C7 (human, UniProt P10643 23-843).
T7 construct: complement component C7; Supplier is stated for the ELISA; also called complement component C7; source: bought: CompTech
The test is described as above.

T6 sequence (P13671 22-934): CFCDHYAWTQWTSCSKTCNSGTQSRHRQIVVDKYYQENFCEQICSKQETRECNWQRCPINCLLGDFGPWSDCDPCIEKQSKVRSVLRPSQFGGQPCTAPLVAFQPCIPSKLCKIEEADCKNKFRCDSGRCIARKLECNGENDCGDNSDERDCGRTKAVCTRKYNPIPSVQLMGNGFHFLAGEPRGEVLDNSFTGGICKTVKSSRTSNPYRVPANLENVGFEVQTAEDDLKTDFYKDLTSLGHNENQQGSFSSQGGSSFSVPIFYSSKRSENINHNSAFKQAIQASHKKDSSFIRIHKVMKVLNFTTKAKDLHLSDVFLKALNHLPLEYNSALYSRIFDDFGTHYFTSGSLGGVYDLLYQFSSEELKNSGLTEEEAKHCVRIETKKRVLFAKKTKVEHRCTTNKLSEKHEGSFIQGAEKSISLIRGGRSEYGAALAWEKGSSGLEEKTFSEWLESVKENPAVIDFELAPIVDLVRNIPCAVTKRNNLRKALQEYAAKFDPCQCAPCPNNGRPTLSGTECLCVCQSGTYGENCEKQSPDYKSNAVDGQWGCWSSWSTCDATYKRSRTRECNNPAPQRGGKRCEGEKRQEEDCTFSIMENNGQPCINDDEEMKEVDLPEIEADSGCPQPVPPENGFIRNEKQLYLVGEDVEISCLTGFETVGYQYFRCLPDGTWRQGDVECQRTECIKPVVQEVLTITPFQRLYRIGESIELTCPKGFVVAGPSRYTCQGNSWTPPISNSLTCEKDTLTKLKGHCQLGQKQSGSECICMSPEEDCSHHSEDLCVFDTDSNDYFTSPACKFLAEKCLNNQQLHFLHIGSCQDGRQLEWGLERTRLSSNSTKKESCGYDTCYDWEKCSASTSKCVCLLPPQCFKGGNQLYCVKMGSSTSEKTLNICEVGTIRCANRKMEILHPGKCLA
T5 sequence (P07357 31-584, chain 1 of 3): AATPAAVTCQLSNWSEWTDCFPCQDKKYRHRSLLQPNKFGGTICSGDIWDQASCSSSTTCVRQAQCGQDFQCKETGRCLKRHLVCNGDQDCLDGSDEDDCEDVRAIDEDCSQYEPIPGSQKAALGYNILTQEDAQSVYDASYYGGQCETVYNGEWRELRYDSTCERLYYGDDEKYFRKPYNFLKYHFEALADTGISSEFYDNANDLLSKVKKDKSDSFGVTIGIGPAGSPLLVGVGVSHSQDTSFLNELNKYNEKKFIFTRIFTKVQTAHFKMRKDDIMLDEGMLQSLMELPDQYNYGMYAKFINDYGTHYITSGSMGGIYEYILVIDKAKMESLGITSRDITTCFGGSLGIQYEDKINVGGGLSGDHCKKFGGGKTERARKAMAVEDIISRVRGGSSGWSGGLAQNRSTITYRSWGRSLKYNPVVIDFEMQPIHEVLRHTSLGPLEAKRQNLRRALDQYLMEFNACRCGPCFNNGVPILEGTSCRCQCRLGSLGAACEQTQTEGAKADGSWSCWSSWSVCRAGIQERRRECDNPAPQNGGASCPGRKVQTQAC
T5 sequence (P07358 55-591, chain 2 of 3): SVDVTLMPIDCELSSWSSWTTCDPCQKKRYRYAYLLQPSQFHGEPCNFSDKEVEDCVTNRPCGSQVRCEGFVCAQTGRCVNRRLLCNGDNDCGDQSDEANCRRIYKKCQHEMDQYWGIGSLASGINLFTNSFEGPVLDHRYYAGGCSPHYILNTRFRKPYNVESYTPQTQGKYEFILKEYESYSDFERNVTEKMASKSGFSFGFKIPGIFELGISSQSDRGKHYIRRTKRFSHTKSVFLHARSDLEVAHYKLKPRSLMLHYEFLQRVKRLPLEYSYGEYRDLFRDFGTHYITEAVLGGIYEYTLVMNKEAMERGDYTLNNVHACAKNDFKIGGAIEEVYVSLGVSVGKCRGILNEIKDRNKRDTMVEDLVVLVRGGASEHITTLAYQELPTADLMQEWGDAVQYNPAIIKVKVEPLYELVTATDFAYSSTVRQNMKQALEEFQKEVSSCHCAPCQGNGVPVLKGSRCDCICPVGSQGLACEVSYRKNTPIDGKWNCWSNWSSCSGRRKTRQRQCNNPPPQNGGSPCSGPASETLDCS
T5 sequence (P07360 21-202, chain 3 of 3): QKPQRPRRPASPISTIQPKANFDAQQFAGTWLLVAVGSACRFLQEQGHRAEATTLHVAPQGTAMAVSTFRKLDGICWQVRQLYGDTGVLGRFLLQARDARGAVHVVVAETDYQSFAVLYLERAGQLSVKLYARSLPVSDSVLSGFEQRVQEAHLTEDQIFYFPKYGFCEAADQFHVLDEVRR
T4 sequence (P02748 22-559): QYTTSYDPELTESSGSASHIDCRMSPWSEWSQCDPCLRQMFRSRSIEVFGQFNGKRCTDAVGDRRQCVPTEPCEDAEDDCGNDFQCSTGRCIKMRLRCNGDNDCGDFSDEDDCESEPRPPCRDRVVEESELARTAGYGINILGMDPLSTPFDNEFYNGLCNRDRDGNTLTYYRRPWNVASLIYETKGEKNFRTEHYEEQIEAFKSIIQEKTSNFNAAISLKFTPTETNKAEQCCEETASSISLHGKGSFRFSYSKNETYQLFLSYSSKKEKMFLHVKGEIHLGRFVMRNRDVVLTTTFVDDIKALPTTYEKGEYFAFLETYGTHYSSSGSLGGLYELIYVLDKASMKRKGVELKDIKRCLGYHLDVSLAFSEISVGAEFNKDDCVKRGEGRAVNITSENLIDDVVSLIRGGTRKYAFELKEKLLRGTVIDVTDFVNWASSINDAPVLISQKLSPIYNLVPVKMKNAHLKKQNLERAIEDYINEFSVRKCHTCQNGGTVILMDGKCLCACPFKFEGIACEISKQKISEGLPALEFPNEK
T7 sequence (P10643 23-843): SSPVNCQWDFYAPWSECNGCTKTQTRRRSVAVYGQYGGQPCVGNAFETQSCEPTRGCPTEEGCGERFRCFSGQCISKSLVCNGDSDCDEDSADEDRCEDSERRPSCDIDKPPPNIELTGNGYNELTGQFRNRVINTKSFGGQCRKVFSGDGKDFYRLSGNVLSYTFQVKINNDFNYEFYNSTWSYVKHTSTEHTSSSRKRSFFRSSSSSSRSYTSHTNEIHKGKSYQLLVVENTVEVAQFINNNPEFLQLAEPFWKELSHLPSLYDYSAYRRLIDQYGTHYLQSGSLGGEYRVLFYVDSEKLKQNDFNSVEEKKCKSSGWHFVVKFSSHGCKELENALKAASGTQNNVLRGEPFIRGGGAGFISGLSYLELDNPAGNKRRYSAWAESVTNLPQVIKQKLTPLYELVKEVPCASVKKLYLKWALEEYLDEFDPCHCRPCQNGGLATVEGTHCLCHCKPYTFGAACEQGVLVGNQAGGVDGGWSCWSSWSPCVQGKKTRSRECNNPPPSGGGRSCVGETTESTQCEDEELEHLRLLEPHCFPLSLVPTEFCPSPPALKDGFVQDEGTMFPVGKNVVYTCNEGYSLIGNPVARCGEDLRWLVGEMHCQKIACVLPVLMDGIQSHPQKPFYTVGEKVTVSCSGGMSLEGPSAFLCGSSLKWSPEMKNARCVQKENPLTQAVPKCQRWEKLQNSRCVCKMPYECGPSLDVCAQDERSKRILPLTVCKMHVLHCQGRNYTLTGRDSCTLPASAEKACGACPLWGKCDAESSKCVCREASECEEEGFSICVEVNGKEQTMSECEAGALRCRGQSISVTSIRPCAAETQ

B1: MFHR13 (FHR1_(1-2):FH1-4:FH13:FH_(19-20)) (other)
chain: EATFCDFPKINHGILYDEEKYKPFSQVPTGEVFYYSCEYNFVSPSKSFWTRITCTEEGWSPTPKCLRLCFFPFVENGHSESSGQTHLEGDTVQIICNTGYRLQNNENNISCVERGWSTPPKCRSEDCNELPPRRNTEILTGSWSDQTYPEGTQAIYKCRPGYRSLGNIIMVCRKGEWVALNPLRKCQKRPCGHPGDTPFGTFTLTGGNVFEYGVKAVYTCNEGYQLLGEINYRECDTDGWTNDIPICEVVKCLPVTAPENGKIVSSAMEPDREYHFGQAVRFVCNSGYKIEGDEEMHCSDDGFWSKEKPKCVEISCKSPDVINGSPISQKIIYKENERFQYKCNMGYEYSERGDAVCTESGWRPLPSCVAIDKLKKCKSSNLIILEEHLKNKKEFDHNSNIRYRCRGKEGWIHTVCINGRWDPEVNCSMAQIQLCGPPPPIDNGDITSFPLSVYAPASSVEYQCQNLYQLEGNKRITCRNGQWSEPPKCLHPCVISREIMENYNIALRWTAKQKLYSRTGESVEFVCKRGYRLSSRSHTLRTTCWDGKLEYPTCAKR
For orientation: IC50 means the point on the concentration scale where inhibition reaches its midpoint. Low values mean greater potency, high ones weaker potency. Take B1: the IC50 with complement C5 came to 52.5 nM; in the test with complement C3b, 16.1 nM.

B2: MFHR13 (FHR1_(1-2):FH1-4:FH13:FH_(19-20)) (other)
chain: EATFCDFPKINHGILYDEEKYKPFSQVPTGEVFYYSCEYNFVSPSKSFWTRITCTEEGWSPTPKCLRLCFFPFVENGHSESSGQTHLEGDTVQIICNTGYRLQNNENNISCVERGWSTPPKCRSTEDCNELPPRRNTEILTGSWSDQTYPEGTQAIYKCRPGYRSLGNIIMVCRKGEWVALNPLRKCQKRPCGHPGDTPFGTFTLTGGNVFEYGVKAVYTCNEGYQLLGEINYRECDTDGWTNDIPICEVVKCLPVTAPENGKIVSSAMEPDREYHFGQAVRFVCNSGYKIEGDEEMHCSDDGFWSKEKPKCVEISCKSPDVINGSPISQKIIYKENERFQYKCNMGYEYSERGDAVCTESGWRPLPSCVAIDKLKKCKSSNLIILEEHLKNKKEFDHNSNIRYRCRGKEGWIHTVCINGRWDPEVNCSMAQIQLCGPPPPIDNGDITSFPLSVYAPASSVEYQCQNLYQLEGNKRITCRNGQWSEPPKCLHPCVISREIMENYNIALRWTAKQKLYSRTGESVEFVCKRGYRLSSRSHTLRTTCWDGKLEYPTCAKR
modifications: N-glycan at the NIS site in FHR1 SCR2 (around 65% occupied); N-glycan at the NCS site in FH13 (fully glycosylated); glycosylation site in FH4 deamidated and not glycosylated; labelled with NT-647 RED-NHS for MST
Molecule B2 yielded an IC50 with C3b of 2.7 nM. That is a single-digit nanomolar value.

B3: Recombinant FHR1 (human FH-related protein 1) with a C-terminal 6x His-tag (natural protein, UniProt Q03591 19-330, looked up)
chain: EATFCDFPKINHGILYDEEKYKPFSQVPTGEVFYYSCEYNFVSPSKSFWTRITCTEEGWSPTPKCLRLCFFPFVENGHSESSGQTHLEGDTVQIICNTGYRLQNNENNISCVERGWSTPPKCRSTDTSCVNPPTVQNAHILSRQMSKYPSGERVRYECRSPYEMFGDEEVMCLNGNWTEPPQCKDSTGKCGPPPPIDNGDITSFPLSVYAPASSVEYQCQNLYQLEGNKRITCRNGQWSEPPKCLHPCVISREIMENYNIALRWTAKQKLYLRTGESAEFVCKRGYRLSSRSHTLRTTCWDGKLEYPTCAKR
notes: complement factor H-related protein 1 (FHR1), human; source: bought: Abcam 152006; not shown: His6, C-terminal, kept
As for B3, the binding result with C9, with C8, in the test with C6 and with C7 was “binds” in each case.
